Measured values taken from article PMC2860068 (DNA repair, 2010).

Assays:
[1] = molecular target: hMSH3 (recombinant, subunit of purified hMutSβ) (human, UniProt P20585 1-1137); assay: far-Western
[2] = molecular target: T1, hMSH6 (recombinant, subunit of purified hMutSα) (human, UniProt P52701 1-1360); assay: pull-down
[3] = molecular target: T1, hMSH6 (recombinant, subunit of purified …); assay: far-Western

T1 sequence (P52701 whole entry): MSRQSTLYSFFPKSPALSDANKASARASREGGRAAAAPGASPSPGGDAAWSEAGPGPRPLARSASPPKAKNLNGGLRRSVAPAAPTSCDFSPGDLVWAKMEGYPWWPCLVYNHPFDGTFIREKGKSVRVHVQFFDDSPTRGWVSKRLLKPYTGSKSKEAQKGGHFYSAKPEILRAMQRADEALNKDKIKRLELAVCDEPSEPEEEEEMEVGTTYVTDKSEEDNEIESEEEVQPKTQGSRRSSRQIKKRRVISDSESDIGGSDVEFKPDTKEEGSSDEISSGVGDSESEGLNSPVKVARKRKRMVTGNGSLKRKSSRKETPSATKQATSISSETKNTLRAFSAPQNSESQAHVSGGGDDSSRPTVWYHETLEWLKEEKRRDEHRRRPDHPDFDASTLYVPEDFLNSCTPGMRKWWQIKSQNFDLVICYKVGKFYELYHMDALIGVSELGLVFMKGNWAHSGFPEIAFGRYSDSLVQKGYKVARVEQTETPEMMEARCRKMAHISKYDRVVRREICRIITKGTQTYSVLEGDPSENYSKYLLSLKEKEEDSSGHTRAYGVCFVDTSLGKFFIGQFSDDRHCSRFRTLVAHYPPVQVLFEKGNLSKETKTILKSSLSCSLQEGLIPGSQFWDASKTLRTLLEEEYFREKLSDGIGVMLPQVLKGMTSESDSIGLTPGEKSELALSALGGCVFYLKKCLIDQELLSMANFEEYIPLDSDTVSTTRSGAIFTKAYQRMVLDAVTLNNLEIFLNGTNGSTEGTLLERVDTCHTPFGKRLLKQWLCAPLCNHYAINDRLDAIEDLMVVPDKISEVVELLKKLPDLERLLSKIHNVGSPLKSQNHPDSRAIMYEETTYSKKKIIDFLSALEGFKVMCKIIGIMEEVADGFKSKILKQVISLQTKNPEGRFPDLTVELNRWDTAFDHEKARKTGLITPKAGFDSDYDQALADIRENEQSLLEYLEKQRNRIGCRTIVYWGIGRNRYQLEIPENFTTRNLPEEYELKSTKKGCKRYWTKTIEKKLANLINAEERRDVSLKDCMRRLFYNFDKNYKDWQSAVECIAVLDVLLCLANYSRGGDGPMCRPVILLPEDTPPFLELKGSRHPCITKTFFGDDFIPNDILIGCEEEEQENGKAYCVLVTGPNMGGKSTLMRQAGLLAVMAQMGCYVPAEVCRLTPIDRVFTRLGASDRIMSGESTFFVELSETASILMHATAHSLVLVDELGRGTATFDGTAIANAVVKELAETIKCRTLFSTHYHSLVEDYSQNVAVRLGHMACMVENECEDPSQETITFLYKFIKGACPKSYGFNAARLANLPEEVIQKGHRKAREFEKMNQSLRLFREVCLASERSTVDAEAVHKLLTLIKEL
Sequence of hMSH3 (recombinant, subunit of purified hMutSβ) (P20585 whole entry): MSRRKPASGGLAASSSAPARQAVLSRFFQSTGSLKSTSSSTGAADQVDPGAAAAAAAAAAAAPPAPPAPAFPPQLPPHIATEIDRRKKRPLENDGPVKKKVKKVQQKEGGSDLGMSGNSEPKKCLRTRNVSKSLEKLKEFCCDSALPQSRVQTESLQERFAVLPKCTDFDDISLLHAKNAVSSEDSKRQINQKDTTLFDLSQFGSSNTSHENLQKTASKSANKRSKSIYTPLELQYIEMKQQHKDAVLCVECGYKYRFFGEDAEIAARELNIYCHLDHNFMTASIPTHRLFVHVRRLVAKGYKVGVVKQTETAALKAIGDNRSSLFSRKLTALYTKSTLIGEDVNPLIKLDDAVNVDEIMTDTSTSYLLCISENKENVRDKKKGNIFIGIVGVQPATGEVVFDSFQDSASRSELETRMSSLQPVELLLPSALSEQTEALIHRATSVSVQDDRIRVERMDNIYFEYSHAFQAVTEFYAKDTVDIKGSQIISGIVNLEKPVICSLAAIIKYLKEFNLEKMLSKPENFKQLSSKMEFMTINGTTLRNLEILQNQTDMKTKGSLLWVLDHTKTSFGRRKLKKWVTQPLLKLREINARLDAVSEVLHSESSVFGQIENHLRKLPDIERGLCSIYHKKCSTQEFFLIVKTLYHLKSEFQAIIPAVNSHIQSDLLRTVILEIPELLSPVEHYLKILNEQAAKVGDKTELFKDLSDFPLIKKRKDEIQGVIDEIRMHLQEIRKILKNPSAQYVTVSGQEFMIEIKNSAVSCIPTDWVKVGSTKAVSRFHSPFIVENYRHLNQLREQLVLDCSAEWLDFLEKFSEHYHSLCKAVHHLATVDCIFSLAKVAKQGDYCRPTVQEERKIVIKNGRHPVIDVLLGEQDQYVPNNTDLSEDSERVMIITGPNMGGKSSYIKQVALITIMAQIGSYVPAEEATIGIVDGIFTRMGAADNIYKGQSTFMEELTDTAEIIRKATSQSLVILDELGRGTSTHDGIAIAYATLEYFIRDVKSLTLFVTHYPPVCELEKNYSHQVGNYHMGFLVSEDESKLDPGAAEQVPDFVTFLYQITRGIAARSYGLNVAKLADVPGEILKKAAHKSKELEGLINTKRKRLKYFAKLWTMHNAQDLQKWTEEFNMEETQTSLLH

Row | binding result [1] | binding result [2] | binding result [3] | Binder
1 | binds | binds |  | GST-hHus1 (natural protein, human, UniProt O60921 1-280, looked up) MKFRAKIVDGACLNHFTRISNMIAKLAKTCTLRISPDKLNFILCDKLANGGVSMWCELEQENFFNEFQMEGVSAENNEIYLELTSENLSRALKTAQNARALKIKLTNKHFPCLTVSVELLSMSSSSRIVTHDIPIKVIPRKLWKDLQEPVVPDPDVSIYLPVLKTMKSVVEKMKNISNHLVIEANLDGELNLKIETELVCVTTHFKDLGNPPLASESTHEDRNVEHMAEVHIDIRKLLQFLAGQQVNPTKALCNIVNNKMVHFDLLHEDVSLQYFIPALS
2 |  |  | binds | GST-hRad9 (natural protein, human, UniProt Q99638 1-391, looked up) MKCLVTGGNVKVLGKAVHSLSRIGDELYLEPLEDGLSLRTVNSSRSAYACFLFAPLFFQQYQAATPGQDLLRCKILMKSFLSVFRSLAMLEKTVEKCCISLNGRSSRLVVQLHCKFGVRKTHNLSFQDCESLQAVFDPASCPHMLRAPARVLGEAVLPFSPALAEVTLGIGRGRRVILRSYHEEEADSTAKAMVTEMCLGEEDFQQLQAQEGVAITFCLKEFRGLLSFAESANLNLSIHFDAPGRPAIFTIKDSLLDGHFVLATLSDTDSHSQDLGSPERHQPVPQLQAHSTPHPDDFANDDIDSYMIAMETTIGNEGSRVLPSISLSPGPQPPKSPGPHSEEEDEAEPSTVPGTPPPKKFRSLFFGSILAPVRSPQGPSPVLAEDSEGEG
3 |  |  | binds | GST-hRad1 (natural protein, human, UniProt O60671 1-282, looked up) MPLLTQQIQDEDDQYSLVASLDNVRNLSTILKAIHFREHATCFATKNGIKVTVENAKCVQANAFIQAGIFQEFKVQEESVTFRINLTVLLDCLSIFGSSPMPGTLTALRMCYQGYGYPLMLFLEEGGVVTVCKINTQEPEETLDFDFCSTNVINKIILQSEGLREAFSELDMTSEVLQITMSPDKPYFRLSTFGNAGSSHLDYPKDSDLMEAFHCNQTQVNRYKISLLKPSTKALVLSCKVSIRTDNRGFLSLQYMIRNEDGQICFVEYYCCPDEEVPESES
